# Experiment: soluble on expression in E. coli; label from the status in PepcDB or PDB records
row,Sequence,soluble on expression in E. coli
1,MSLSEKKVHLRLRKELSVPIAVVENESLAQLSYEEESQASLMDISMEQQQLRLHSHFDNSKVFTENNRYIVKTLQTDYSSGFSNDDELNGYIDMQIGYGLVNDHKKVYIWNIHSTQKDTPYITVPFRSDDNDEIAVAPRCILTFPATMDESPLALNPNDQDETGGLIIIKGSKAIYYEDINSINNLNFKLSEKFSHELELPINSSGGEKCDLMLNCEPAGIVLSTNMGRIFFITIRNSMGKPQLKLGKLLNKPFKLGIWSKIFNTNSSVVSLRNGPILGKGTRLVYITTNKGIFQTWQLSATNSHPTKLIDVNIYEAILESLQDLYPFAHGTLKIWDSHPLQDESSQLFLSSIYDSSCNETYYILSTIIFDSSSNSFTIFSTYRLNTFMESITDTKFKPKIFIPQMENANDTNEVTSILVMFPNAVVITQVNSKLDSSYSMRRKWEDIVSLRNDIDIIGSGYDSKSLYVLTKQMGVLQFFVKENEETNSKPEVGFVKSHVDQAVYFSKINANPIDFNLPPEISLDQESIEHDLKLTSEEIFHSNGKYIPPMLNTLGQHLSVRKEFFQNFLTFVAKNFNYKISPELKLDLIEKFEILNCCIKFNSIIRQSDVLNDIWEKTLSNYNLTQNEHLTTKTVVINSPDVFPVIFKQFLNHVVFVLFPSQNQNFKLNVTNLINLCFYDGILEEGEKTIRYELLELDPMEVDTSKLPWFINFDYLNCINQCFFDFTFACEEEGSLDSYKEGLLKIVKILYYQFNQFKIWINTQPVKSVNANDNFININNLYDDNHLDWNHVLCKVNLKEQCIQIAEFYKDLSGLVQTLQTLDQNDSTTVSLYETFFNEFPKEFSFTLFEYLIKHKKLNDLIFRFPQQHDVLIQFFQESAPKYGHVAWIQQILDGSYADAMNTLKNITVDDSKKGESLSECELHLNVAKLSSLLVEKDNLDINTLRKIQYNLDTIDAEKNISNKLKKGEVQICKRFKNGSIREVFNILVEELKSTTVVNLSDLVELYSMLDDEESLFIPLRLLSVDGNLLNFEVKKFLNALVWRRIVLLNASNEGDKLLQHIVKRVFDEELPKNNDFPLPSVDLLCDKSLLTPEYISETYGRFPIDQNAIREEIYEEISQVETLNSDNSLEIKLHSTIGSVAKEKNYTINYETNTVEYEGHHHHHH,soluble
2,MSLANQVLAVNDDLPIRTHKPVHSGKVRSVYWLTEEDSARLIKEKGYDVAPDAPLAIMVISDRISAFDCIWHGEGGLKGVPGKGAALNAISNHWFKLFKDNGLADSHILDIPHPFVWIVQKAKPVKIEAICRKYITGSMWRAYANGEREFCGIQLPEGLEKDKALPNLLMTPSTKGILKGIPGVPEADDVNITRQNIVDNYEAFNFSSAEDIAQYEKLLKEGFNVISQALEGIDQIFVDTKFEFGYVHDAAGNEKLIYMDEVGTPDSSRIWDAKEYQAGNIVENSKEGFRQFLLNHFPDPDILLNKERMPEREALARDNDLPVESLMDISRTYIGIAEKITGKPITLSENPKAEIIEILSKEYGLIDEGHHHHHH,soluble
3,MAHHHHHHMAFNQRFDRGAQPSYAAVQLPPGWQMAYSVEGEVYYIDHNTRTTHWKIPQEVLNEMYHQGQTYRPSRSRRGIDRSKMKTKMCMNIQNGGKCTWGNACAFAHSSEELAAVPHNGGGQRMRMDPGAHQGNDNGLDNNHLQQ,soluble
4,MGSDKIHHHHHHMFMERQDRYYQTYLNILKEELVAAMGCTEPIAIAYGAAKAREVLGAVPHKVVLEVSSNIIKNVKSVVVPNTDGLKGIEAATAAGIIAGRSDKILEVIAEVCQAEKQQIKTYLSETDIEVKLADSQIIFDIMITMFHQDSYVKLRIADYHTHIVHIEKNGEIIFGTGDLDAGISSLTDRKLLSVSKIIEFADSVRIEDVKELLDKQIEYNSAIARAGMEGNYGANVGRVLLKTYGNDVKIRAKAMAAAGSDARMSGCELPVIINSGSGNQGMTASLPVIEYAAELQSGEEKLYRALVVSNLITLHLKTGIGRLSAFCGVICAGCGSGAGIAYLHGGGYDEIAHTIVNAAAIVSGIVCDGAKPSCAGKIAAAVDAGILGYLMYKEGQQFRGGDGIVAKGIENTIANIGYLGKVGMKETDKEIINIMLNQCSS,not soluble
5,QALIKEARLTPKPGLVDSTNNGSHQDMSLSTFEQSAIALRPFFTQFVLMGIETTNLPDSHILSKIRPLGLQAEQAMFVATNQVNTHKGAIFAFGLVCTALGRHFSRWQNKMMSSPSFEISQDTTGISLISETVARFTQGITDELKNYSKNQPLTAGITLYQQYGFTGARGEAEKGFPLVQQAVVFILSQAESEMRWYWALLYLMANNNDTNIVHRGGINGLQFIQDEAHKRLGNAKNLQNANALMASLREFDDDCIARNLSPGGSADLLALTIFFLSLLYC,not soluble
6,MNLYRLLKQREADQKPLRVALIGAGKFGSMFLSQVQRTPGMRLVAVADLAPDRARAALTRVGWPAAALNADTIHHAVKTGKVYFSDDVRSVSVDPEVEIVIDATGQAAAGIEHVLTCCEYGKHII,not soluble
7,MVLLIIRGDSYEKIKNAIADVHRHAKLTILGKPRIMVPEAADEILEHIVGNIKKPCKKACLVRIEENAPRAIDRIRKIHPPAHIVIVSERHEPYFYLLEDLPKMPLLKGYYKSKSLDSDEEIEESH,not soluble
8,MGSDKIHHHHHHMAFFDLPLEELKKYRPERYEEKDFDEFWEETLAESEKFPLDPVFERMESHLKTVEAYDVTFSGYRGQRIKGWLLVPKLEEEKLPCVVQYIGYNGGRGFPHDWLFWPSMGYICFVMDTRGQGSGWLKGDTPDYPEGPVDPQYPGFMTRGILDPRTYYYRRVFTDAVRAVEAAASFPQVDQERIVIAGGSQGGGIALAVSALSKKAKALLCDVPFLCHFRRAVQLVDTHPYAEITNFLKTHRDKEEIVFRTLSYFDGVNFAARAKIPALFSVGLMDNICPPSTVFAAYNYYAGPKEIRIYPYNNHEGGGSFQAVEQVKFLKKLFEKG,soluble
9,MLQITKSLSIALTEIEMTALRSQGAGGQNVNKVASAIHLRFDIGASSLPDVYKERLLNLNDQRITKDGIVVIKAQSHRTQEQNREEALKRLQGLISSVITLPKPRRPTKPTRSSQRKRLDAKTKRSAVKALRKSIDELEHHHHHH,not soluble
10,MNEHHQPFEEIKLINANGAEQWSARQLGKLLGYSEYRHFIPVLTRAKEACENSGHTIDDHFEEILDMVKIGSNAKRALKDIVLSRYACYLVVQNGDPAKPVIAAGQTYFAIQTRRQELADDEAFKQLREDEKRLFLRNELKEHNKQLVEAAQQAGVATATDFAIFQNHGYQGLYGGLDQKAIHQRKGLKKNQKILDHMGSTELAANLFRATQTEEKLKRDGVNSKQQANTTHFDVGRKVRQTIQELGGTMPEELPTPQVSIKQLENSVKITEKK,soluble
11,MGSDKIHHHHHHMKSDTEEKYLQQVNRVIDYINSHLNEPLRVETLAREVCLSEYHFHRIMRAYLHEPLATYIARQRVERAVMYLQMKNIRLAQVAEMVGYETPQSLSKAFKQFFGISPTAYRKRRAERYEEFSTLKKESLKPEILTEPELKLVYIRIIGRYGEEEPYIEAWRKLRDFLQINGLLTPSTRWIGISFDDPTVTKTEQCRFYACATVEHDVSPQGAFGMKTIPQGRYAVYTLRGSYSGLQEMYDRIYSHPLPTAFRDATSFEEYLNCEPDTEEKDYVTRIYIPIE,not soluble
12,MADLPISLLQTLAYKQPLGRNSRIVHFTDGALFPVVAFGDNHSTSELYIAVRGDHRDLMSPDVRDSYALTGDDHKVWGATHHTYYVEGAPKKPLKFNVKTRTDLTILPVADVFWRADGSADVDVVWNDMPAVAGQSSSIALALASSLPFVPKAAYTGCLSGTNVQPVQFGNLKARAAHKIGLPLVGMTQDGGEDTRICTLDDAADHAFDSMESTVTR,soluble
13,GIDPFTKANSEACRDGLRAVMECRNVTHLLQQELTEAQKGFQDVEAQAATCNHTVMALMASLDAEKAQGQKKVEELEGEITTLNHKLQDASAEVERLRRENQVLSVRIADKK,soluble
14,MEFFGESWKKHLSGEFGKPYFIKLMGFVAEERKHYTVYPPPHQVFTWTQMCDIKDVKVVILGQNPYHGPNQAHGLCFSVQRPVPPPPSLENIYKELSTDIEDFVHPGHGDLSGWAKQGVLLLNAVLTVRAHQANSHKERGWEQFTDAVVSWLNQNSNGLVFLLWGSYAQKKGSAIDRKRHHVLQTAHPSPRSVYRGFFGCRHFSKTNELLQKSGKKPIDWKEL,soluble
15,TVQVPVYSEQEYQLYLHDDAWTKAETDHLFDLSRRFDLRFVVIHDRYDHQQFKKRSVEDLKERYYHICAKLANVRAVPGTDLKIPVFDAGHERRRKEQLERLYNRTPEQVAEEEYLLQELRKIEARKKEREKRSQDLQKLITAADTTAEQRRTERKAPKKKLPQKKEAEKPAVPETAGIKFPDFKSAGVTLRSQRMKLPSSVGQKKIKALEQMLLELGVELSPTPTEELVHMFNELRSDLVLLYELKQACANCEYELQMLRHRHEALARAGVLGGPATPASGPGPASAEPAVTEPGLGPDPKDTIIDVVGAPLTPNSRKRRESASSSSSVKKAKKP,soluble
16,MRILVSNDDGIFSPGIKALGLAMRALGEVFVVAPDMEQSAVGHGITVRRPLRFKHTQSAGFGEIPAYRVDGTPADCVVLGVHLLGRPDLVVSGINLGVNLGLDLTHSGTVAAALEGASLGIPSIAFSLDTSGEVLDFQEAARWALAIARAVGERGLPPGVLLNVNFPASRPKGLLVTRLSTHRFEDQVVERLDPEGKPYYWIAGTPAGEEEEGTDLWAVRRGYVSVTPVSLDLTAHGFLEALSGLLEGVAP,soluble
17,MNQPDISTLVQRIEQLELNQSRLRILLSHAPEKHKAFDKACYVANLSFEQEAHVRQTILDFLDSDKEDINELLSSIEAIVRYTVDAKSLISGFKMRGTAPDRWKQIDPHNEC,not soluble
18,MGTFNNSIQEKIEKLQKTVDTLLHMGENMDCICVDDLSLLNKEIHEQINDLYPYHGKTAEQEAALCLSLLMGYSVSMYANSEDEAKKKTVLRRSQMILKNQLPSPLKIQLHTIYDKLLS,not soluble
19,MNCRLGCGACCIAPSISSVIPGMPNGKAAGERCVQLSDDNLCLIFGSPERPAVCCDFEASLDVCGHSNEEALWLITNLESQTS,soluble
20,MSIKKSPVYNVIAVPVEKVQANDYNPNVVAPPEMRLLELSIWEDGFTMPCVCYYDKEKDVYILVDGFHRYSVLKTSKRIFQRENGMLPIVVIEKDLSNRMSSTIRHNRARGTHNIELMCHIVAELDKAGMSDQWIMKNIGMDRDELLRLKQISGLADLFANRDFSVPEDDQPGNVDKKPTR,not soluble
21,MSLNIKKAAELSGIKTDNIRYYERIGLIPKITRTESGIRNFTEANIRTLKFVKHMRDAGVQVEPLTRYMALVNEGNPETKEERIEILKNQVEQLRTEIIEKQSALDYLTFKIENYDEVMLPNEINLNQSSKETIKEGHHHHHH,soluble
22,GSHMDDDLVDAEGNLVENGGTYYLLPHIWAHGGGIETAKTGNEPCPLTVVRSPNEVSKGEPIRISSQYRSLFIPRGSLVALGFANPPSCAASPWWTVVDSPQGPAVKLSQQKLPEKDILVFKFEKVSHSNIHVYKLLYCQHDEEDVKCDQYIGIHRDRNGNRRLVVTEENPLELVLLKAKSETASSH,soluble
23,KYNMGNANYRIQKELHNFLNNPPINCTLDVHPNNIRIWIVKYVGLENTIYANEVYKLKIIFPDDYPLKPPIVYFLQKPPKHTHVYSNGDICLSLLGDDYNPSLSISGLVLSIISMLSSAKEKKLP,soluble

# Source: the DeepSol protein solubility set
